Assay results taken from paper PMC7962484 (RNA, 2021).
Residue numbers refer to the chain shown, from its start. Numbers in names are those of the source. Blank lines part the entries; values can stand above or below the binder they belong to.

What was measured:
Nop1^83–321 = target: T1, Nop1^83–321 (S. cerevisiae, UniProt P15646 83-321); experiment: SEC
T1 sequence (looked up): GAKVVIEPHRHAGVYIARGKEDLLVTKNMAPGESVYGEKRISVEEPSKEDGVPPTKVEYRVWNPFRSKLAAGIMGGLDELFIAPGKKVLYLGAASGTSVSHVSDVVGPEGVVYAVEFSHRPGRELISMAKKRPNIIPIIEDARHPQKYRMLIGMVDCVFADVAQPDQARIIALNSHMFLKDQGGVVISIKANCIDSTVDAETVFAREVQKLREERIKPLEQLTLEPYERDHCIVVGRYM

Sc Nop1^83–327 = target: T2, Sc Nop1^83–327 (S. cerevisiae, UniProt P15646 83-327); experiment: SEC
T2 sequence (looked up): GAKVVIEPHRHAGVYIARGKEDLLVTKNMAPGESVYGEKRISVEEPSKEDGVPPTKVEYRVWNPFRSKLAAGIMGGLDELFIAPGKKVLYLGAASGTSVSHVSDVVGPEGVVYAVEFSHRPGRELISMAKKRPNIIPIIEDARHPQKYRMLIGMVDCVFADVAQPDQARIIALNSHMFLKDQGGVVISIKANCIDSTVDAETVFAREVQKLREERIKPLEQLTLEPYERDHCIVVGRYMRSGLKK

binding result (Nop1^83–321): binds
B1: Sc Nop56^1–166 (domain or fragment, S. cerevisiae, UniProt Q12460 1-166, looked up)
chain: MAPIEYLLFEEPTGYAVFKVKLQQDDIGSRLKEVQEQINDFGAFTKLIELVSFAPFKGAAEALENANDISEGLVSESLKAILDLNLPKASSKKKNITLAISDKNLGPSIKEEFPYVDCISNELAQDLIRGVRLHGEKLFKGLQSGDLERAQLGLGHAYSRAKVKFS

binding result (Sc Nop1^83–327): binds
B2: Sc Nop56^1–166-L147W/E148F (domain or fragment, S. cerevisiae, UniProt Q12460 1-166, looked up)
chain: B1 chain with L147W, E148F

binding result (Sc Nop1^83–327): binds
B3: Nop56^1–166-Q35A/N39A (domain or fragment, S. cerevisiae, UniProt Q12460 1-166, looked up)
chain: B1 chain with Q35A, N39A
